Laboratory results taken from patent US20220017622A1 (Pfizer, published 2022).
Values joined by “and” are separate entries in the source; they are usually repeats but may differ in a detail not shown here. Identical values can stand only once.

T1: human B7-H4 extracellular domain (human, UniProt Q7Z7D3 29-258)
T1 construct: For SPR it says only human B7-H4 ECD; also called Hu B7-H4 ECD; huB7-H4 ECD
T1 sequence: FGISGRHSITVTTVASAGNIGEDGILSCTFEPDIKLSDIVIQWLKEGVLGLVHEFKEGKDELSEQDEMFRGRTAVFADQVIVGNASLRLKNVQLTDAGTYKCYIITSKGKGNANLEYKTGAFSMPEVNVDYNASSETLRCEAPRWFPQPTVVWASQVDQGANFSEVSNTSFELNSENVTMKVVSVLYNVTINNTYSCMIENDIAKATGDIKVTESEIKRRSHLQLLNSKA


These binders were tested against T1, human B7-H4 extracellular domain (assay: competition ELISA on coated huB7-H4 ECD; competitor biotinylated 0052 (by series, not given)).
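Note: tested antibody premixed 1:1 with biotinylated parental antibody, 2 h at room temperature on coated ECD, bound biotin detected via streptavidin-HRP, absorbance read at 450 nm.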

IC50 | Binder
15.8 nM and 12.9 nM | B7-H4 antibody 0352 (antibody, human IgG1, kappa, V domains shown) VH: EVQLVESGGGLVQPGGSLRLSCAVSGGSFSGYYWNWIRQPPGKGLEWIGEINHSGSATYNPSLKSRFTISVDTAKNSFYLQMNSLRAEDTAVYYCARGLYNWNVDHWGQGTLVTVSS VL: DIQMTQSPSSLSASVGDRVTITCRASQGIRNDLGWYQQKPGKAPKRLIYAASSLQSGVPSRFSGSGSGTEFTLTISSLQPEDFATYYCLQHNSYPRTFGGGTKVEIKR
35.5 nM | B7-H4 antibody 0544 (antibody, human IgG1, kappa, V domains shown) VH: EVQLVESGGGLVQPGGSLRLSCAASGGSFSGYYWNWIRQPPGKGLEWIGEIDHQGSTKYNPSLKSRVTISVDTAKNSLYLQMNSLRAEDTAVYYCARGLYNWNVDHWGQGTLVTVSS VL: DIQMTQSPSSLSASVGDRVTITCRASQGIRNDLGWYQQKPGKAPKRLIYAASSLQSGVPSRFSGSGSGTDFTLTISSLQPEDFATYYCLQHSSYPRTFGGGTKVEIKR
33.8 nM | B7-H4 antibody 0542 (antibody, human IgG1, kappa, V domains shown) VH: EVQLVESGGGLVQPGGSLRLSCAASGGSFSGYYWNWIRQPPGKGLEWIGEIDHQGSTKYNPSLKSRVTISVDTAKNSLYLQMNSLRAEDTAVYYCARELYNWNVDHWGQGTLVTVSS VL: DIQMTQSPSSLSASVGDRVTITCRASQGIRNDLGWYQQKPGKAPKRLIYAASSLQSGVPSRFSGSGSGTDFTLTISSLQPEDFATYYCLQHSSYPRTFGGGTKVEIKR
3.6 nM | B7-H4 antibody 0934 (antibody, human IgG1, kappa, V domains shown) VH: EVQLVESGGGLVQPGGSLRLSCAVSGGSFSGYYWNWVRQAPGKGLEWIGEINHSGSATYNPSLKSRVTISVDTAKNSLYLQMNSLRAEDTAVYYCARGLYNWNVDHWGQGTLVTVSS VL: DIQMTQSPSSLSASVGDRVTITCRASQGIRNDLGWYQQKPGKAPKRLIYAASSLQSGVPSRFSGSGSGTDFTLTISSLQPEDFATYYCLQHSSYPRTFGGGTKVEIKR
13.6 nM and 17.8 nM | B7-H4 antibody 0380 (antibody, human IgG1, kappa, V domains shown) VH: EVQLVESGGGLVQPGGSLRLSCAVSGGSFSGYYWNWVRQAPGKGLEWIGEINHSGSATYNPSLKSRFTISVDTAKNSFYLQMNSLRAEDTAVYYCARELYNWNVDHWGQGTLVTVSS VL: DIQMTQSPSSLSASVGDRVTITCRASQGIRNDLGWYQQKPGKAPKRLIYAASSLQSGVPSRFSGSGSGTEFTLTISSLQPEDFATYYCLQHNSYPRTFGGGTKVEIKR
9.13 nM and 10.8 nM | B7-H4 antibody 0364 (antibody, human IgG1, kappa, V domains shown) VH: EVQLVESGGGLVQPGGSLRLSCAVSGGSFSGYYWNWVRQAPGKGLEWIGEINHSGSATYNPSLKSRVTISVDTAKNSFYLQMNSLRAEDTAVYYCARGLYNWNVDHWGQGTLVTVSS VL: DIQMTQSPSSLSASVGDRVTITCRASQGIRNDLGWYQQKPGKAPKRLIYAASSLQSGVPSRFSGSGSGTEFTLTISSLQPEDFATYYCLQHNSYPRTFGGGTKVEIKR
2.1 nM | B7-H4 antibody 1083 (antibody, human IgG1, kappa, V domains shown) VH: EVQLVESGGGLVQPGGSLRLSCAASGGSFSGYYWNWIRQPPGKGLEWIGEINHSGSATYNPSLKSRVTISVDTAKNSFYLQMNSLRAEDTAVYYCARGLYNWNVDHWGQGTLVTVSS VL: DIQMTQSPSSLSASVGDRVTITCRASQGIRNDLGWYQQKPGKAPKRLIYAASSLQSGVPSRFSGSGSGTDFTLTISSLQPEDFATYYCLQHNAYPRTFGGGTKVEIKR
30.1 nM | B7-H4 antibody 0540 (antibody, human IgG1, kappa, V domains shown) VH: EVQLVESGGGLVQPGGSLRLSCAVSGGSFSGYYWNWIRQPPGKGLEWIGEIDHQGSTKYNPSLKSRVTISVDTAKNSLYLQMNSLRAEDTAVYYCARELYNWNVDHWGQGTLVTVSS VL: DIQMTQSPSSLSASVGDRVTITCRASQGIRNDLGWYQQKPGKAPKRLIYAASSLQSGVPSRFSGSGSGTDFTLTISSLQPEDFATYYCLQHNAYPRTFGGGTKVEIKR
13.5 nM and 17.1 nM | B7-H4 antibody 0362 (antibody, human IgG1, kappa, V domains shown) VH: EVQLVESGGGLVQPGGSLRLSCAVSGGSFSGYYWNWVRQAPGKGLEWIGEIDHQGSTKYNPSLKSRFTISVDTAKNSFYLQMNSLRAEDTAVYYCARGLYNWNVDHWGQGTLVTVSS VL: DIQMTQSPSSLSASVGDRVTITCRASQGIRNDLGWYQQKPGKAPKRLIYAASSLQSGVPSRFSGSGSGTEFTLTISSLQPEDFATYYCLQHNSYPRTFGGGTKVEIKR
3.5 nM | B7-H4 antibody 1081 (antibody, human IgG1, kappa, V domains shown) VH: EVQLVESGGGLVQPGGSLRLSCAVSGGSFSGYYWNWIRQPPGKGLEWIGEIDHQGSTKYNPSLKSRVTISVDTAKNSFYLQMNSLRAEDTAVYYCARGLYNWNVDHWGQGTLVTVSS VL: DIQMTQSPSSLSASVGDRVTITCRASQGIRNDLGWYQQKPGKAPKRLIYAASSLQSGVPSRFSGSGSGTDFTLTISSLQPEDFATYYCLQHNAYPRTFGGGTKVEIKR
21.9 nM | B7-H4 antibody 0538 (antibody, human IgG1, kappa, V domains shown) VH: EVQLVESGGGLVQPGGSLRLSCAASGGSFSGYYWNWIRQPPGKGLEWIGEIDHQGSTKYNPSLKSRVTISVDTAKNSLYLQMNSLRAEDTAVYYCARGLYNWNVDHWGQGTLVTVSS VL: DIQMTQSPSSLSASVGDRVTITCRASQGIRNDLGWYQQKPGKAPKRLIYAASSLQSGVPSRFSGSGSGTDFTLTISSLQPEDFATYYCLQHNAYPRTFGGGTKVEIKR
12.4 nM | B7-H4 antibody 0376 (antibody, human IgG1, kappa, V domains shown) VH: EVQLVESGGGLVQPGGSLRLSCAVSGGSFSGYYWNWVRQAPGKGLEWIGEINHSGSATYVDSVKGRFTISRDTAKNSFYLQMNSLRAEDTAVYYCARGLYNWNVDHWGQGTLVTVSS VL: DIQMTQSPSSLSASVGDRVTITCRASQGIRNDLGWYQQKPGKAPKRLIYAASSLQSGVPSRFSGSGSGTEFTLTISSLQPEDFATYYCLQHNSYPRTFGGGTKVEIKR
42.3 nM | B7-H4 antibody 0546 (antibody, human IgG1, kappa, V domains shown) VH: EVQLVESGGGLVQPGGSLRLSCAVSGGSFSGYYWNWIRQPPGKGLEWIGEIDHQGSTKYNPSLKSRVTISVDTAKNSLYLQMNSLRAEDTAVYYCARELYNWNVDHWGQGTLVTVSS VL: DIQMTQSPSSLSASVGDRVTITCRASQGIRNDLGWYQQKPGKAPKRLIYAASSLQSGVPSRFSGSGSGTDFTLTISSLQPEDFATYYCLQHSSYPRTFGGGTKVEIKR
2 nM | B7-H4 antibody 1082 (antibody, human IgG1, kappa, V domains shown) VH: EVQLVESGGGLVQPGGSLRLSCAASGGSFSGYYWNWVRQAPGKGLEWIGEINHSGSATYNPSLKSRVTISVDTAKNSLYLQMNSLRAEDTAVYYCARGLYNWNVDHWGQGTLVTVSS VL: DIQMTQSPSSLSASVGDRVTITCRASQGIRNDLGWYQQKPGKAPKRLIYAASSLQSGVPSRFSGSGSGTDFTLTISSLQPEDFATYYCLQHNAYPRTFGGGTKVEIKR
8.49 nM and 8.3 nM | B7-H4 antibody 0368 (antibody, human IgG1, kappa, V domains shown) VH: EVQLVESGGGLVQPGGSLRLSCAASGGSFSGYYWNWVRQAPGKGLEWVAEINHSGSATYNPSLKSRFTISRDTAKNSLYLQMNSLRAEDTAVYYCARGLYNWNVDHWGQGTLVTVSS VL: DIQMTQSPSSLSASVGDRVTITCRASQGIRNDLGWYQQKPGKAPKRLIYAASSLQSGVPSRFSGSGSGTEFTLTISSLQPEDFATYYCLQHNSYPRTFGGGTKVEIKR
2.5 nM | B7-H4 antibody 0911 (antibody, human IgG1, kappa, V domains shown) VH: EVQLVESGGGLVQPGGSLRLSCAVSGGSFSGYYWNWIRQPPGKGLEWIGEINHSGSATYNPSLKSRVTISVDTAKNSLYLQMNSLRAEDTAVYYCARGLYNWNVDHWGQGTLVTVSS VL: DIQMTQSPSSLSASVGDRVTITCRASQGIRNDLGWYQQKPGKAPKRLIYAASSLQSGVPSRFSGSGSGTDFTLTISSLQPEDFATYYCLQHSSYPRTFGGGTKVEIKR
